From patent publication US20020123042A1 (CHIRON, published 2002)

Biological target: T1, full-length HA-epitope tagged huBUB1 (plasmid p396-1) (human, UniProt O43683 1-1085)
T1 construct: In vitro translated; precipitated with anti-HA monoclonal antibody and Protein G beads; also called HA-huBUB1; HA-BUB1; not shown: triple HA tag
Test: anti-HA co-immunoprecipitation of in vitro translated proteins, BUB3 present
Source text: ³⁵S-methionine-labeled proteins and polypeptides were then produced from these plasmids by coupled in vitro transcription/translation reactions (IVT), as described above. IVT reactions were immunoprecipitated (IP), using either anti-FLAG agarose beads (Kodak IBI) or anti-HA monoclonal antibody combined with Protein G beads (BMB). Beads were extensively washed as previously described to ensure the removal of non-specifically-associated proteins, including relatively stringent washes in 2 M NaCl buffer. Bound proteins were released from beads by heating samples in SDS-sample buffer and were analyzed on 10-20% SDS-PAGE gels. Aliquots of initial ³⁵S-labeled translation reactions were analyzed as well.

B1: wild-type huBUB1 (full-length, plasmid p385-1) (enzyme)
chain: MDTPENVLQMLEAHMQSYKGNDPLGEWERYIQWVEENFPENKEYLITLLEHLMKEFLDKKKYHNDPRFISYCLKFAEYNSDLHQFFEFLYNHGIGTLSSPLYIAWAGHLEAQGELQHASAVLQRGIQNQAEPREFLQQQYRLFQTRLTETHLPAQARTSEPLHNVQVLNQMITSKSNPGNNMACISKNQGSELSGVISSACDKESNMERRVITISKSEYSVHSSLASKVDVEQVVMYCKEKLIRGESEFSFEELRAQKYNQRRKHEQWVNEDRHYMKRKEANAFEEQLLKQKMDELHKKLHQVVETSHEDLPASQERSEVNPARMGPSVGSQQELRAPCLPVTYQQTPVNMEKNPREAPPVVPPLANAISAALVSPATSQSIAPPVPLKAQTVTDSMFAVASKDAGCVNKSTHEFKPQSGAEIKEGCETHKVANTSSFHTTPNTSLGMVQATPSKVQPSPTVHTKEALGFIMNMFQAPTLPDISDDKDEWQSLDQNEDAFEAQFQKNVRSSGAWGVNKIISSLSSAFHVFEDGNKENYGLPQPKNKPTGARTFGERSVSRLPSKPKEEVPHAEEFLDDSTVWGIRCNKTLAPSPKSPGDFTSAAQLASTPFHKLPVESVHILEDKENVVAKQCTQATLDSCEENMVVPSRDGKFSPIQEKSPKQALSSHMYSASLLRLSQPAAGGVLTCEAELGVEACRLTDTDAAIAEDPPDAIAGLQAEWMQMSSLGTVDAPNFIVGNPWDDKLIFKLLSGLSKPVSSYPNTFEWQCKLPAIKPKTEFQLGSKLVYVHHLLGEGAFAQVYEATQGDLNDAKNKQKFVLKVQKPANPWEFYIGTQLMERLKPSMQHMFMKFYSAHLFQNGSVLVGELYSYGTLLNAINLYKNTPEKVMPQGLVISFAMRMLYMIEQVHDCEIIHGDIKPDNFILGNGFLEQDDEDDLSAGLALIDLGQSIDMKLFPKGTIFTAKCETSGFQCVEMLSNKPWNYQIDYFGVAATVYCMLFGTYMKVKNEGGECKPEGLFRRLPHLDMWNEFFHVMLNIPDCHHLPSLDLLRQKLKKVFQQHYTNKIRALRNRLIVLLLECKRSRK
notes: Full-length, untagged protein made in vitro (T7 TnT kit), 35S-methionine-labeled or unlabeled; also called full-length huBUB1; untagged huBUB1
binding result: no binding
